Source: PMC6109925, “Structural and functional analysis of cystatin E reveals enzymologically relevant dimer and amyloid fibril states” (The Journal of Biological Chemistry, 2018)
Blank lines part the entries; values can stand above or below the molecule they belong to.

How the values were obtained:
[1] = target: human legumain, wild type, activated (human) (UniProt Q99538); assay: SEC; S200 10/300 GL; legumain (0.5 mg/ml) incubated with dimeric hCE 1:1 (1 AEP and 1 hCE dimer) or monomeric hCE 1:2 at pH 5.5 for 10 min on ice; fractions on SDS-PAGE; details: scale: hCE chains per legumain
Sequence of human legumain, wild type, activated (human) (Q99538 18-323): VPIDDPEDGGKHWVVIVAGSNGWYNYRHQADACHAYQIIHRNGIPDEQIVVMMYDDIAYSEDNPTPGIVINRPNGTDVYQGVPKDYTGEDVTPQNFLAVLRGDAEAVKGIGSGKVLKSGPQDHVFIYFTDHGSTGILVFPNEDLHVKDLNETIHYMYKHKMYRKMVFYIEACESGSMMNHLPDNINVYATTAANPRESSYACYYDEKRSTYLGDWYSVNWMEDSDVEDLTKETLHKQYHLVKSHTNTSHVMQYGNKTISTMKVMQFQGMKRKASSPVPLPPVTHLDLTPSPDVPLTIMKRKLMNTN

[2] = target: human legumain, wild type, activated (human) (UniProt Q99538); assay: enzyme inhibition kinetics (Morrison equation for tight binding inhibitors); 50 mM citric acid pH 5.5, 100 mM NaCl, 0.05% Tween 20; 100 μM Z-AAN-AMC, 0.01 to 5 nM hCE, 2 nM legumain, 37 °C; triplicates
[3] = target: human cystatin E, full-length wild type, monomeric (human) (UniProt Q15828); assay: SEC; S75 10/300 GL; WT cystatin E incubated at 60 °C in citric acid buffer at pH 3.0 before injection; monomer to dimer
[4] = target: human cystatin E, full-length wild type, monomeric (human) (UniProt Q15828); assay: SEC; S75 10/300 GL, 20 mM citric acid pH 5.5, 100 mM NaCl; sample incubated 10 min at ≥70 °C (70, 80 or 85 °C), pH 5.5, then chilled on ice; monomer to dimer
[5] = target: human cystatin E, full-length wild type, monomeric (human) (UniProt Q15828); assay: thioflavin T fluorescence; fibril formation after 10 min at 80 °C, 10 mg/ml, 50 mM citric acid, 100 mM NaCl (pH 3–6) or 50 mM Tris, 100 mM NaCl (pH 7.0); ThT fluorescence at 482 nm
[6] = target: glycosylated human cystatin E (human) (UniProt Q15828); assay: SEC; S75 10/300 GL, 20 mM citric acid pH 5.5, 100 mM NaCl; sample incubated 10 min at ≥70 °C (70, 80 or 85 °C), pH 5.5, then chilled on ice; monomer to dimer
[7] = target: the molecule itself; assay: SEC; S75 10/300 GL, 20 mM citric acid pH 5.5, 100 mM NaCl, 250 μl sample; no destabilising heat (ΔhCE kept at 4 °C and 37 °C before injection); oligomerisation state
[8] = target: the molecule itself; assay: SEC; S75 10/300 GL, 20 mM citric acid pH 5.5, 100 mM NaCl; sample incubated 10 min at ≥70 °C (70, 80 or 85 °C), pH 5.5, then chilled on ice; monomer to dimer

Molecule: dimeric human cystatin E (domain-swapped dimer) (from UniProt Q15828 29-149) (complex)
- stoichiometry N [1]: 2
- Ki [2]: 0.0135 nM

B1: N-terminally truncated human cystatin E, Δ(Arg4–Leu13)hCE (domain or fragment)
chain: MELSPDDPQVQKAAQAAVASYNMGSNSIYYFRDTHIIKAQSQLVAGIKYFLTMEMGSTDCRKTRVTGDHVDLTTCPLAAGAQQEKLRCDFEVLVVPWQNSSQLLKHNCVQM
- stoichiometry N [7]: 2

B2: human cystatin C, wild type (natural protein, UniProt P01034 27-146, looked up)
chain: SSPGKPPRLVGGPMDASVEEEGVRRALDFAVGEYNKASNDMYHSRALQVVRARKQIVAGVNYFLDVELGRTTCTKTQPNLDNCPFHDQPHLKRKAFCSFQIYAVPWQGTMTLSKSTCQDA
notes: N terminus Ser1 after removal of the pelB leader. numbers count on: the mature protein; Called 'untagged hCC' in the pull-down (it has no Strep-tag), while the methods give a C-terminal His6 tag for the expression constructs; also called hCC; WT cystatin C; source: E. coli Bl21(DE3), periplasm (pelB leader), purified (nickel-nitrilotriacetic acid resin, SEC)
- stoichiometry N [8]: 2

Continued, values first:

- stoichiometry N [3]: 2
- percent converted to the dimer at 70 °C [4]: > 90%
- stoichiometry N [4]: 2
- fold increase in ThT signal after incubation at pH 3.0 [5]: 4 fold
- Ki [2]: 0.0107 nM
Molecule: human cystatin E, full-length wild type, monomeric (from UniProt Q15828 29-149) (natural protein)

- stoichiometry N [6]: 2
Molecule: glycosylated human cystatin E (from UniProt Q15828 29-149) (natural protein)
